Results as given in publication PMC9136605.

Biological target: human lactate dehydrogenase C (LDHC), recombinant wild type with C-terminal His6-tag (human) (UniProt P07864)

human lactate dehydrogenase C (LDHC), recombinant wild type with C-terminal His6-tag, sequence (P07864 whole entry): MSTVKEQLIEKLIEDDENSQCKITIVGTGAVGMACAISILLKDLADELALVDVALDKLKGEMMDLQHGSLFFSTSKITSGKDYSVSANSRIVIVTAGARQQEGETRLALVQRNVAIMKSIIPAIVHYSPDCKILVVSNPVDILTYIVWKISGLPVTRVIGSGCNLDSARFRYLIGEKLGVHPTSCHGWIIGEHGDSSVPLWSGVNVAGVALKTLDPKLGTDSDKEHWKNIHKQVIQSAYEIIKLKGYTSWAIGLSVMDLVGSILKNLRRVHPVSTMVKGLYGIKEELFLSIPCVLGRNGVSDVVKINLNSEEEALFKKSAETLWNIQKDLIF

human lactate dehydrogenase C (LDHC), recombinant wild type with C-terminal His6-tag (from UniProt P07864 1-332) (enzyme)
stoichiometry N: 4
